Experimental findings from patent US20110230650A1 (NORTHWESTERN UNIVERSITY, published 2011) are described below.

The data set deals with the molecule itself. Put plainly: gel filtration (Superdex 200) of His-tagged LP4 purified without detergent; lipid nanodisc. An excerpt:
In some embodiments, the presently disclosed compositions comprise a distinct form of polypeptides that are specifically engineered to spontaneously solubilize membrane proteins without a detergent intermediary (i.e., “LP” molecules). […] For example, in some embodiments the polypeptides comprise multiple repeats of an amphipathic helical fragment of ApoA1. […] The eluted protein was run on a gel filtration column (Superdex 200, FIG. 3, middle panel). […] The protein behaved as expected: it self-assembled as a dimer of appropriate size (as in FIG. 2) and solubilized a membrane fragment.
For orientation: Size exclusion chromatography separates by hydrodynamic size, large species first.

B1: histidine-tagged LP4 (designed binder)
chain: FQKKWQEEMELYRQKVEPLRAELQEGARQKLHELQEKLSPLGEEMRDRARAHVDAFQKKWQEEMELYRQKVEPLRAELQEGARQKLHELQEKLSPLGEEMRDRARAHVDAFQKKWQEEMELYRQKVEPLRAELQEGARQKLHELQEKLSPLGEEMRDRARAHVDAFQKKWQEEMELYRQKVEPLRAELQEGARQKLHELQEKLSPLGEEMRDRARAHVDA
notes: Histidine-tagged LP4 purified without detergent as an empty, lipid-filled nanodisc; not shown: histidine tag
Consider B1, for which the binding result was “binds”.
